Patent US20110206704A1, “Methods and compositions for modulating hepatocyte growth factor activator” (Genentech, Inc., priority 2009, published 2011)
Each block holds one molecule with its values, some of them ahead of it. * marks the point of attachment. CH2Cl = ClC*

Experiments:
HGFA = target: T1, HGFA (Homo sapiens, UniProt Q04756); assay: Ab40 binding to HGFA in the presence of active site inhibitors (surface plasmon resonance); conditions: active site inhibitor present; result in words
T1 construct: His6 behind an AAA linker) (C); made in house; host or cells: baculovirus - insect cell expression system
T1 sequence (Q04756 373-655): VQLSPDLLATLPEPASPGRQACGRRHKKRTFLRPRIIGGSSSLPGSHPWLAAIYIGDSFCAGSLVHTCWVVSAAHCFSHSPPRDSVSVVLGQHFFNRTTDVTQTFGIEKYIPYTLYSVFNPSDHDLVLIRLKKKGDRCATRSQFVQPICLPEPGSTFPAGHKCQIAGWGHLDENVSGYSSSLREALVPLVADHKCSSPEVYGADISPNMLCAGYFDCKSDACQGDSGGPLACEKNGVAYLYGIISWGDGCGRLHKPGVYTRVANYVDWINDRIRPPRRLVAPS
Source text: FIG. 3: Effects of active site inhibitors on antibody binding to HGFA. (a-b, e-f) Surface plasmon resonance (BIAcore) measurements of binding to immobilized antibodies, Ab40 (a-b) or Ab40.ΔTrp (e-f), after co-injection of HGFA (a,e) or HGFA-KQLR (b, f) complex (“KQLR” disclosed as SEQ ID NO: 21). (c) Competition binding (BIAcore) of HGFA to immobilized Ab40 in presence of different concentrations of KD1. (d) Competition binding ELISA measuring binding of HGFA to biotinylated KD1 in the presence of increasing antibody concentrations.
Antibody reformatting and determination of dissociation rate constants to HGFA: Anti-HGFA Fabs were reformatted into human IgG1 by cloning the VL and VH regions of individual clones into LPG3 and LPG4 vector, respectively (Liang et al, 2007). The full-length antibodies were transiently expressed in Chinese Hamster Ovary cells and purified on a protein-A column. […] Association rates (kon) and dissociation rates (koff) were obtained by using a simple one-to-one Langmuir binding model (BIAEvaluation) and the equilibrium dissociation constants (KD) were calculated (koff/kon). […] The values of Req (20-80% of Rmax) were calculated and plotted individually against C (concentration of HGFA or HGFA-KQLR (“KQLR” disclosed as SEQ ID NO: 21)) using BIAEvaluation Software to determine KD at the steady state analysis. […]

[1] = target: HGFA (Val373-Ser655 plus tag …) (human) (UniProt Q04756); assay: SPR (BIAcore), IgG captured by anti-human IgG, HGFA injected
[2] = target: HGFA (Val373-Ser655 plus tag …) (human) (UniProt Q04756); assay: cell-based or functional assay
[3] = target: T2, HGFA (Val373-Ser655 plus tag …) (human, UniProt Q04756 373-655); assay: SPR (BIAcore), IgG captured by anti-human IgG, HGFA injected
T2 construct: Made in baculovirus-insect cells, active-site titrated
T2 sequence: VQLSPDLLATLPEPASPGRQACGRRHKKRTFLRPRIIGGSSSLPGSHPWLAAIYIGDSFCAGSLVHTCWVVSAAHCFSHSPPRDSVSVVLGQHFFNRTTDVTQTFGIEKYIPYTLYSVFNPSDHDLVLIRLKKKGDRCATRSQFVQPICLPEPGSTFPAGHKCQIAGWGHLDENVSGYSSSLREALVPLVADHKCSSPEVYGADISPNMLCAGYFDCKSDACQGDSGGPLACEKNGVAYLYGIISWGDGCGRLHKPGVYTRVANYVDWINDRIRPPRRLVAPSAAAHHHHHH

[4] = target: T2, HGFA (Val373-Ser655 plus tag …); assay: competition ELISA: plate coated with HGFA, incubated with increasing Ab40, then 1 nM biotinylated KD1 (blocked ligand) detected with streptavidin-HRP
HGFA-KQLR complex [5] = target: T3, HGFA-KQLR complex (human, UniProt Q04756 373-655, N-terminal acetyl; C-terminal chloromethyl ketone, reacted with Ser195 and His57 of HGFA; Ser195 and His57 (chymotrypsinogen numbering) covalently linked to Ac-KQLR-cmk); assay: SPR (BIAcore), IgG captured by anti-human IgG, HGFA-KQLR complex injected
T3 construct: Made by incubating HGFA with a two fold molar excess of Ac-KQLR-cmk for 2 hours, then size exclusion chromatography

[6] = target: T2, HGFA (Val373-Ser655 plus tag …); assay: cell-based or functional assay
HGFA-KQLR complex [7] = target: T3, HGFA-KQLR complex; assay: SPR (BIAcore)
[8] = target: T2, HGFA (Val373-Ser655 plus tag …); assay: SPR (BIAcore)
HGFA-KQLR complex [9] = target: T3, HGFA-KQLR complex; assay: SPR (BIAcore), steady state affinity, IgG captured, HGFA-KQLR complex injected
[10] = target: T2, HGFA (Val373-Ser655 plus tag …); assay: SPR (BIAcore), steady state affinity, IgG captured, HGFA injected

Molecule: N=C(N)c1ccccc1 [Benzamidine]
interference with binding of Ab40 to HGFA (HGFA): did not interfere

B1: Ab39 (antibody, from a related filing, human IgG1, V domains shown)
VH: EVQLVESGGGLVQPGGSLRLSCAASGFTFNGTYIHWVRQAPGKGLEWVGGIYPAGGATYYADSVKGRFTISRDNSKNTLYLQMNSLRAEDTAVYYCAKWWAWPAFDYWGQGTLVTVSS
VL: DIQMTQSPSSLSASVGDRVTITCRASQDVSTAVAWYQQKPGKAPKLLIYSASFLYSGVPSRFSGSGSGTDFTLTISSLQPEDFATYYCQQSYTTPPTFGQGTKVEIKR
Kd [1]: 10.3 nM
koff [1]: 0.0053 s⁻¹
kon [1]: 520000 M⁻¹ s⁻¹
Km^app of S-2266 hydrolysis at 1 µM Ab39 (control Km=0.25 mM) [2]: 910 µM
Vmax^app of S-2266 hydrolysis at 1 µM Ab39 (control Vmax=0.99 µM pNA/min) [2]: 0.97 µM pNA/min

B2: Ab40 (antibody, V domains shown)
VH: EVQLVESGGGLVQPGGSLRLSCAASGFTINGTYIHWVRQAPGKGLEWVGGIYPAGGATYYADSVKGRFTISADTSKNTAYLQMNSLRAEDTAVYYCAKWWAWPAFDYWGQGTLVTVSS
VL: DIQMTQSPSSLSASVGDRVTITCRASQDVSTAVAWYQQKPGKAPKLLIYSASFLYSGVPSRFSGSGSGTDFTLTISSLQPEDFATYYCQQSNRAPATFGQGTKVEIKR
Kd [3]: 0.16 nM
koff [3]: 0.000175 s⁻¹
kon [3]: 1.08e+06 M⁻¹ s⁻¹
IC50 (read off the curve) [4]: ~1 nM
Kd (HGFA-KQLR complex [5]): 1.35 nM
koff (HGFA-KQLR complex [5]): 0.00043 s⁻¹
kon (HGFA-KQLR complex [5]): 320000 M⁻¹ s⁻¹
IC50 (read off the curve), HGFA fractional activity vi/vo on S-2266 [6]: ~8 nM
fold decrease in affinity compared to HGFA (HGFA-KQLR complex [7]): 8 fold
fold improvement in binding affinity over Ab39 [8]: 64 fold

More lines, now with the values ahead:

interference with binding of Ab40 to HGFA (HGFA): interfered
Molecule: Ac-KQLR-chloromethyl ketone (Ac-KQLR-CH2Cl; SMILES CC(=O)N[C@@H](CCCCN)C(=O)N[C@@H](CCC(N)=O)C(=O)N[C@@H](CC(C)C)C(=O)N[C@@H](CCCNC(=N)N)C(=O)CCl) [Ac-KQLR-cmk]

Kd (HGFA-KQLR complex [9]): 161 nM
Kd [10]: 150 nM
B3: Ab40.ΔTrp (antibody, V domains shown)
VH: EVQLVESGGGLVQPGGSLRLSCAASGFTINGTYIHWVRQAPGKGLEWVGGIYPAGGATYYADSVKGRFTISADTSKNTAYLQMNSLRAEDTAVYYCAKWAWPAFDYWGQGTLVTVSS
VL: DIQMTQSPSSLSASVGDRVTITCRASQDVSTAVAWYQQKPGKAPKLLIYSASFLYSGVPSRFSGSGSGTDFTLTISSLQPEDFATYYCQQSNRAPATFGQGTKVEIKR
